Test results taken from patent US20250084158A1 (ABL BIO, published 2025).

Experiments:
human CLL-1 on cells [1] = molecular target: T1, human CLL-1 on cells (human, UniProt Q5QGZ9 1-265); assay: cell-based or functional assay
T1 sequence (looked up): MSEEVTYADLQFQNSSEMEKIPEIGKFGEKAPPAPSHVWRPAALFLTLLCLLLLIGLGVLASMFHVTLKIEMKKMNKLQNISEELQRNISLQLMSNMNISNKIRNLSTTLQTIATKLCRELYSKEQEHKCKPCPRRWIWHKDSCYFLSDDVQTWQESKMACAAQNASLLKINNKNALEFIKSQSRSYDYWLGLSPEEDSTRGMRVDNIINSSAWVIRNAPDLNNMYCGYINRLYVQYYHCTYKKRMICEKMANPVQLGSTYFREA

human CLL-1 on cells [2] = molecular target: T1, human CLL-1 on cells; assay: FACS (PE-anti-human IgG), HL-60 cells
Procedure: (§1) To evaluate the tumor antigen binding property of the bispecific antibody of Example 3, the binding ability of CLL1 targeting portions of 33C2/CD3-R2 and 33C2/CD3-R3 to CLL1 expressed in mammalian cells were analyzed by using FACS.
(§2) Briefly, CLL1 positive cells (U937 and HL60) were incubated with 33C2/CD3-R2 and 33C2/CD3-R3 antibodies. After washing with a FACS buffer (1% BSA in PBS), the PE-anti-human IgG antibodies were added to each well and incubated at 4° C. for 60 min. The MFI (Median Fluorescence Intensity) of PE (phycoerythrin) was evaluated by FACS Calibur. BsAb mock/CD3, which has an anti-CD3 antigen-binding fragment at one arm, and no antigen-binding fragment at another arm, was used as a control group.

human CLL-1 on cells [3] = molecular target: T1, human CLL-1 on cells; assay: cell-based or functional assay; remark: listed apart in the source
human CLL-1 on cells [4] = molecular target: T1, human CLL-1 on cells; assay: cell-based or functional assay; remark: listed apart in the source
human CLL-1 on cells [5] = molecular target: T1, human CLL-1 on cells; assay: cell-based or functional assay; remark: listed apart in the source
human CLL-1 on cells [6] = molecular target: T1, human CLL-1 on cells; assay: FACS (PE-anti-human IgG), U937 cells
Procedure: as §1, §2

B1: 33C2/CD3-R3 (bispecific antibody, human IgG1, kappa, N297A)
heavy 1: not shown
heavy 2: QVQLVQSGAEVKKPGASVKVSCKASGYSFTGYAMNWVRQAPGQRLEWIGLINPYNGGAMYNQKFKGRATLTVDTSASTAYMELSSLRSEDTAVYYCARDYRYEGHLDYWGQGTLVTVSSASTKGPSVFPLAPSSKSTSGGTAALGCLVKDYFPEPVTVSWNSGALTSGVHTFPAVLQSSGLYSLSSVVTVPSSSLGTQTYICNVNHKPSNTKVDKKVEPKSCDKTHTCPPCPAPELLGGPSVFLFPPKPKDTLMISRTPEVTCVVVDVSHEDPEVKFNWYVDGVEVHNAKTKPREEQYASTYRVVSVLTVLHQDWLNGKEYKCKVSNKALPAPIEKTISKAKGQPREPQVCTLPPSREEMTKNQVSLSCAVKGFYPSDIAVEWESNGQPENNYKTTPPVLDSDGSFFLVSKLTVDKSRWQQGNVFSCSVMHEALHNHYTQKSLSLSPGK
light 1: EIVLTQSPATLSLSPGERATLSCSATSSVSYMHWYQQKPGQAPRRWIYDTSKLASGIPARFSGSGSGTSYTLTISSLEPEDFAVYYCQQWSSDSPTFGQGTKLEIKRTVAAPSVFIFPPSDEQLKSGTASVVCLLNNFYPREAKVQWKVDNALQSGNSQESVTEQDSKDSTYSLSSTLTLSKADYEKHKVYACEVTHQGLSSPVTKSFNRGEC
light 2: DIVMTQSPDSLAVSLGERATINCKSSQSLLNSRTRKNYLAWYQQKPGQPPKLLIYWASTRQSGVPDRFSGSGSGTDFTLTISSLQAEDVAVYYCTQSHTLRTFGGGTKVEIKPDIQNPDPAVYQLRDSKSSDKSVCLFTDFDSQTQVSQSKDSDVYITDKCVLDMRSMDFKSNSAVAWSQKSDFACANAFQNSIIPEDTFFPSPESS
notes: As 33C2/CD3-R2 but with the (G4S)3 linker; also called anti-CLL-1/anti-CD3 bispecific antibody with (G4S)3 linker
What does the source list for B1?
CD25 on CD4 T cells, U937 targets, EC50 (human CLL-1 on cells [1]): 1.23 pM; CD25 on CD8 T cells, U937 targets, EC50 (human CLL-1 on cells [1]): 1.1 pM; CD69 on CD4 T cells, U937 targets, EC50 (human CLL-1 on cells [1]): 0.61 pM; CD69 on CD8 T cells, U937 targets, EC50 (human CLL-1 on cells [1]): ~0.5 pM; U937 cell lysis, EC50 (human CLL-1 on cells [1]): 0.15 pM; EC50 (human CLL-1 on cells [2]): 0.09 nM; specific lysis of HL-60, PBMC donor ABL06, EC50 (human CLL-1 on cells [3]): 5.07 pM; specific lysis of HL-60, PBMC donor ABL09, EC50 (human CLL-1 on cells [3]): 1.26 pM; specific lysis of HL-60, PBMC donor ABL10, EC50 (human CLL-1 on cells [3]): 0.97 pM; specific lysis of HL-60, PBMC donor ABL15, EC50 (human CLL-1 on cells [3]): 3.04 pM; specific lysis of HL-60, PBMC donor ABL16, EC50 (human CLL-1 on cells [3]): 7.01 pM; specific lysis of HL-60, PBMC donor ABL17, EC50 (human CLL-1 on cells [3]): 16.6 pM; specific lysis of HL-60, PBMC donor ABL18, EC50 (human CLL-1 on cells [3]): 9.43 pM; specific lysis of HL-60, PBMC donor ABL19, EC50 (human CLL-1 on cells [3]): 8.18 pM; specific lysis of U937, PBMC donor ABL06, EC50 (human CLL-1 on cells [3]): 0.57 pM; specific lysis of U937, PBMC donor ABL09, EC50 (human CLL-1 on cells [3]): 0.08 pM; specific lysis of U937, PBMC donor ABL10, EC50 (human CLL-1 on cells [3]): 0.15 pM; specific lysis of U937, PBMC donor ABL15, EC50 (human CLL-1 on cells [3]): 0.04 pM; specific lysis of U937, PBMC donor ABL16, EC50 (human CLL-1 on cells [3]): 0.03 pM; specific lysis of U937, PBMC donor ABL17, EC50 (human CLL-1 on cells [3]): 1.69 pM; specific lysis of U937, PBMC donor ABL18, EC50 (human CLL-1 on cells [3]): 3.05 pM; specific lysis of U937, PBMC donor ABL19, EC50 (human CLL-1 on cells [3]): 0.39 pM; CD25 on CD4 T cells, HL60 targets, EC50 (human CLL-1 on cells [4]): 1.94 pM; CD25 on CD8 T cells, HL60 targets, EC50 (human CLL-1 on cells [4]): 2.09 pM; CD69 on CD4 T cells, HL60 targets, EC50 (human CLL-1 on cells [4]): 0.8 pM; CD69 on CD8 T cells, HL60 targets, EC50 (human CLL-1 on cells [4]): 0.57 pM; U937 cell lysis (so in the source); Table 21 is the HL60 table by paragraph 356), EC50 (human CLL-1 on cells [4]): 0.97 pM; T-cell activation (NFAT reporter effector cells) with HL-60, EC50 (human CLL-1 on cells [5]): 0.04 nM; T-cell activation (NFAT reporter effector cells) with U937, EC50 (human CLL-1 on cells [5]): 0.016 nM; EC50 (human CLL-1 on cells [6]): 0.25 nM
